Biological target: human D1-D2 truncated LAG-3-ECD-human IgG1 fusion protein (human) (UniProt P18627)
Test: ELISA on coated ΔD1-D2 huFc; EC50 table has no unit, x axis Ab(nM); fit value of a flat curve

Chain of human D1-D2 truncated LAG-3-ECD-human IgG1 fusion protein (human) (P18627 253-450): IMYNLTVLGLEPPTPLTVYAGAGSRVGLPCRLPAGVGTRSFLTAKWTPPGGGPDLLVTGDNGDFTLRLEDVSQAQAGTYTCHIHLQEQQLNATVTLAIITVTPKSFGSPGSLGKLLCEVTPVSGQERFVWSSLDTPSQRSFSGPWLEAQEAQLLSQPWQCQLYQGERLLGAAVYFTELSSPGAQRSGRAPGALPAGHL

B1: 147H mouse monoclonal antibody (antibody, V domains shown)
VH: QVQLQQSGSELVRPGTSVKISCKASGYTFTNYWLGWIKQRPGHGLEWIGDIYPGGDYINYNEKFKGKATLSADTSSSTAYMQLSSLTSEDSAVYFCARPNLPGDYWGQGTSVTVSS
VL: DIVMTQAAFSNPVTLGTSASISCRSSKSLLHSNGITYLYWYLQKPGQSPQLLIYQVSNLASGVPGRFSGSGSGTDFTLRISRVEAEDVGVYYCAQNLELPWTFGGGTKLEIK
- EC50: 2.62 nM
